Measured values: the DeepSol protein solubility set

Experiment: soluble on expression in E. coli; label from the status in PepcDB or PDB records

Sequence | soluble on expression in E. coli
MLYKEPEDGEKIKFDKGKWIVPNKPVILYIEGDGIGPEITNAAIKVINKAVERAYGSSREIKWLEVYAGEKAEKLVNDRFPKETQEMLLKYRVVLKGPLETPIGKGWKSVNVAIRLMLDLYANIRPVKYIEGLESPLKHPEKVDMIIFRENTDDLYRGIEYPFNSEEAKKIRDFLRKELKVEIEDDTGIGIKVMSKYKTQRITRLAIQYAIEHKRKKVTIMHKGNVMKYTEGAFREWAYEVALKEYRDFIVTEEEINQGKPDQGKIILNDRIADNMFQQIIIRPEEYDIILAPNVNGDYISDAAGALIGNIGMLGGANIGDEGGMFEAIHGTAPKYAGKNVANPTGIIKAGELMLRWMGWNEAADLIEKAINMAIRDKKVTQDIARFMGVKALGTKEYADELIKIMDTI | soluble
MSLKYLIDLHTHTIVSGHAYTTLLENIKQASQIGIKILGTSEHGPKMPGAPHIWYFGNMNKVPRKIYDVTVLRGCEADILNSNGDLDIPERIQNELDYIIASLHDVCIEPGTIEDNTKALLNAMNNPNIDILGHTGNPMYPIDIDAVVSKAKEKNVLIEINNGSLSGSREGSYDNCKKIAQACKKKGVKVILGTDSHISFTIGNFDKVQKLLDSVDMPKELIMNTDEKKIVEYLKAKGKLKNEGHHHHHH | soluble
MLAQQRLDFEFRPMTAADVGNAHELSIALKWPHRLEDWAMLQRVAQGFVAVRNGRLIGSAFACHQGEFSTIGLVIVSDDYQGKGIGRKLMELAVGSIPPRTAILNATLAGAPLYEKMGFVSFGEIQQRQGQAQLPDATLLTAEESCRVLSEADHDRVLELGNAGSGLDRSVTLGDLLNNLEHAVGIDRDGQLQAFALLRPFGRGLCIGPVVAQTVEQARHMIEHLLARVPYAFVRIDIPTHCGLADWLEAAGLKRVDSVTCMSMGAVPQAREGVSQFALITQAIG | not soluble
SYSKTNEAAIEKTRHIANAAVYGRPEYRYNGALNLHYRPKRTDSTLLLNGGMNLNGEVLIEGGNMIVSGRPVPHAYDHQAKREPVLENEWTDGSFKAARFTLRNHARLTAGRNTAHLDGDITAYDLSGIDLGFTQGKTPECYRSYHSGSTHCTPNAVLKAENYRALPATQVRGDITLNDRSELRLGKAHLYGSIRAGKDTAVRMEA | not soluble
MIQTKDIIELTDTYGANNYHPLPIVISKAEGVWVEDPEGNRYMDLLSAYSAVNQGHRHPKIINALIDQANRVTLTSRAFHSDQLGPWYEKVAKLTNKEMVLPMNTGAEAVETAIKTARRWAYDVKKVEANRAEIIVCEDNFHGRTMGAVSMSSNEEYKRGFGPMLPGIIVIPYGDLEALKAAITPNTAAFILEPIQGEAGINIPPAGFLKEALEVCKKENVLFVADEIQTGLGRTGKVFACDWDNVTPDMYILGKALGGGVFPISCAAANRDILGVFEPGSHGSTFGGNPLACAVSIAALEVLEEEKLTERSLQLGEKLVGQLKEIDNPMITEVRGKGLFIGIELNEPARPYCEQLKAAGLLCKETHENVIRIAPPLVISEEDLEWAFQKIKAVLS | not soluble
MSLLRETLESGKFAVTTEMAPPKGTDLSHLIECAKPLVGRVHAANVTDFQSAVMRATSLATCKLLKDAGLEPVIQITGRDRNRIAIQGEMLSAGVFGINNLLALTGDHTSVGDHPQAKGVFDLDSVGILQTAETLMAGTDMAGNKLKGSPDFYLGASVTPEYSPIEVQLLKMKKKIKAGAKFFQTQALYDINTMRKFRELTRDMDCKVLAGIVPLKSPGMAKFMTANVPGIFVPDEQIERLRAAGKENWVSEGIKMAGELIKQLKEEDLCDGVHIMAIGAEENIPAILDAAGL | not soluble
MKYILVTGGVISGIGKGIIASSIGTILKSCGLRVTAIKIDPYINIDAGTFSPYEHGEVFVLNDGGEVDLDLGNYERFLDINLYKDNNITTGKIYQHVINKERRGDYLGKTVQVVPHITDAVQEWVMNQAKVPVDGNKEEPQICVIELGGTIGDIEGMPFVEAFRQFQFKAKRENFCNIHVSLVPQLSATGEQKTKPTQNSVRALRGLGLSPDLIVCRSSTPIEMAVKEKISMFCHVNPEQVICIHDVSSTYRVPVLLEEQSIVKYFKERLHLPIGAHHHHHH | soluble
MGSDKIHHHHHHMSSIVLAVGNGKTLFGGSGVAPDADLVRFVDPESPIINAFDLCALRGDGIFEATTVWRGFPVSLENHLKRLANSARLVDMPEPNIPALTRAVQLVIDQYDDPEPGPMLRIIVSRGLDPDTGVGKAADRTPTVYIFLDAKGTLHSLEPITMASMTRGYPSDITARAPWLLNGAKTLSYAFNCAVHRECARRGVGDAILFTEDGYTMECPNSSIVARYGDTFVTPDPRIGILNGTSQREMFAWALEEGKKAEYRKLPIAELREADSLYMTHGGWSIPISAIDGRALAVDAAEIQAINDAIHSGRTHEDALKIGPTGDYE | not soluble
MGSDKIHHHHHHMPSSVCGDPMMCQNCKKSVPNAIFHVYHRRGFHYPAQKCEENFILFLIKGEMLVNSREYAGTMLKAGEFMLQPISSKIEMLAMTDVECIYYQFNQPELFCDIRYNRIMKETDPPLIPSPLPIIPELQHFLESARTYLSEKKICRDLLSLKRKELAFILGYFYSDYDLASLVHPLSKYASSFECFVYQNYKKVKTVEEFAKLGGYSQTTFRRIFDNVFHEPVYEWMLSRRKEEIIYELQNTEATISEICYKFGFESLPHFSNFCKKSFGTSPRSIRLKRSSE | not soluble
MNKWSRLYVITVRRTFPGRRNIVLTQYWNKSKKMSDESNDVKWNDALTPLQLMVLRDKATERPNTGAYLHTNESGVYHCANCDRPLYSSKAKFDARCGWPAFYEEVSPGAITYHRDNSLMPARVEICCARCGGHLGHVFEGEGWKQLLNLPKDTRHCVNSASLNLKKD | not soluble
MSLLRIRQPKSETVRQFLQTQASRDFSYPMVGATLATPPSEYQVDHTRVRLGHGEESLAQGRIALQKWTQFQLGWVTTFPPALPIQAGEMVAIVARAGGFWWLNACRIVCTIEEPKQFGFAYGTLPAHAESGEERFLIEMDDAGDVWYDILAFSRPNRVSAKLAYPYMRHLQKRFARESAAAMRQAIRPEGHHHHHH | soluble
MNRLKNMSKYSDAKELASLTLGKKTEYANQYDPSLLQPVPRSLNRNDLHLSATLPFQGCDIWTLYELSWLNQKGLPQVAIGEVSIPATSANLIESKSFKLYLNSYNQTRFASWDEVQTRLVHDLSACAGETVTVNVKSLNEYTAEPIVTMQGECIDDQDIEIANYEFDDALLQGAAQGEEVSEVLHSHLLKSNCLITNQPDWGSVEIAYHGAKMNREALLRYLVSFREHNEFHEQCVERIFTDIMRYCQPQSLTVYARYTRRGGLDINPFRSSHQSAPNHNQRMARQ | soluble
SAQAQRVQDAIQHWESHHPKEVAARSTRLAELKQALAEQGAVVRTLQPKVTTTSPQAMLKQAMPALQKMETYACTDGLTFVGKHSSHRRQVEERLDSFGGSQSRKAANKQANDMSNMAAIAAKRGNVSLNQLKSIAACVAQAQAGCCTTFAYSAAAELMKHNQDNQQRIEVVAHRGAKGHSQTHCFVVVGRDPNSELSKPETWGKQAHVIDPWAATIGGRLQGTPSNPPIANLWPPTESV | not soluble
MGSDKIHHHHHHSQGKQISGSSNYITKNIKVGSFDQIKSMSSSDIVYTQKQGAPTVQIYGPDNIVELMETSVSGRTLTIKFKKNTSIRNSGKLEIRVSSPSLKHLSIYGSGNTTFTNGIKSHDELQMSIYGSGNISGNSFSCTKLAARIYGSGNVNLKRISTSDTQVNISGSGNVLLDGKSTEAEYHIAGSGDINATELKVENVNARISGSGSIRCYATENLTGGVSGSGNVAYKGNPQINFSKRGLQKL | not soluble
MINETKYMRQQITNLIQIIDTIKYNTLMTDWNIQTHIYKFNQIVTNELNKFKGFETSYIINENQVSYYEIITLLNKRPLRQVDYGNKIQYLNFYHTELSNALFAIKFAHLEHHHHHH | not soluble
MQGKNTIVTTGDYSIGLLSQTSGNLNTDTIIRVNSDGSVTPSFSDGDDTFIVTAGNHAVGVLACASPGSACACVSSLDEESTADTGSNENNAIAKLDMAKGEITTHGTESYAAYANGTVVKAGDTLDYTNASVTLTDVDITTHGDNAHAIAARQGTVSFNQGEIYTTGPDAAIAKIYNGGTVTLKNTSAVAHQGSGIVLESSINGQEATVDILSGSSLRSANEILYHKDETSNVTITDSEVSSAADVFINNIKGHLTVDATNSKITGSANISTDDNTHTYLSLSDNSTWDIKADSTVSNLTVDNSTVYISRADGRDVEPTRLTITENYVGNNGVLHLRTELDDDNSATDKVVINGNTSGTTRVKVTNAGGSGAYTLNGIEIISVEGESNGEFIKDSRIFAGAYEYSLTRGNTEATNKNWYLTNFQATSGGETNSGGSSAPTVAPTPVLRPEAGSYVANLAAANTLFVMRLNDRAGETRYIDPVTEQERSSRLWLRQIGGHNAWRDSNGQLRTTSHRYVSQLGGDLLTGGFTDSDSWRLGVMAGYARDYNLTHSSVSDYRSKGSVRGYSAGLYATWFADDISKKGAYIDSWAQYSWFKNSVKGDELAYESYSAKGATVSLEAGYGFALNKSFGLEAAKYTWIFQPQAQAIWMGVDHNAHTEANGSRIENDANNNIQTRLGFRTFIRTQEKNSGPHGDDFEPFVEMNWIHNSKDFAVSMNGVKVEQDGVSNLGEIKLGVNGNLNPAASVWGNVGVQLGDNGYNDTAVMVGLKYKF | not soluble
MIVMPKRLSDEIASRVRALIEEQNLEAGMKLPAERQLALQLGVSRNSLREALAKLVSEGVLVSRRGGGTFVRWQHETWSEQNIVQPLKMLMANDPDYSFDILEARHAIEASTAWHAAMRATAADKEKIRLCFDATLSEDPDLASQADVRFHLAIAEASHNVVLLQTMRGFFDVLQSSVKQSRQRMYLVPPVFSKLTEQHQAVMDAILDGNAEGARKAMMAHLSFVHTTIKRFDEDQARQARITRLPGDHNEMTRENKS | not soluble
SSTKVPIYLKRGSRKGKKEKLRDLLSSDMISPPLGDFRHTIHIGSGGGDDMFGDISFLQGKFHLLPGTAVEEAEEDGSFDLPFQFTRTTTVCGRELPDGLSPLLKNAISLPVIGGPQALTLPTAQAPPKPPRLHLESPQPSPQPSPQGAGNVDVWRIPEAGSPHNGMSPEPEAEEPFLSHASSLLSLHVDLGPSILDDVLQIMDHDLGRVQIPT | soluble
MTGWGDHDSLYINPYENRNKLRTYSEYFPIVEVDSSFYAMQPARNYTKWAMETPKDFSFIVKAYQGMTGHMKGEIPFSTFDEMFDVYKQSILPLIEAGKLKTILFQYPPWFDCKKKNVDFLRYTKEKMEGLPCAIEFRNQTWFYPEMRDRTLQFLEQEKWIHTICDEPQAGIGSVPLVLEVTNSDMALIRFHGRNVHGWLDKGENWRAVRCLYRYNNKELEEWVERLEQLKKKTKDIYVLFNNNSGGDAADNAKQLMKMMNITYGEPKPEQLNFFE | not soluble
MDNSGKEAEAMALLAEAERKVKNSQSFFSGLFGGSSKIEEACEIYARAANMFKMAKNWSAAGNAFCQAAQLHLQLQSKHDAATCFVDAGNAFKKADPQEAINCLMRAIEIYTDMGRFTIAAKHHISIAEIYETELVDIEKAIAHYEQSADYYKGEESNSSANKCLLKVAGYAALLEQYQKAIDIYEQVGTNAMDSPLLKYSAKDYFFKAALCHFCIDMLNAKLAVQKYEELFPAFSDSRECKLMKKLLEAHEEQNVDSYTESVKEYDSISRLDQWLTTMLLRIKKTIQGDEEDLR | soluble
MGNKICQFKLVLLGESAVGKSSLVLRFVKGQFHEFQESTIGAAFLTQTVCLDDTTVKFEIWDTAGQERYHSLAPMYYRGAQAAIVVYDITNEESFARAKNWVKELQRQASPNIVIALSGNKADLANKRAVDFQEAQSYADDNSLLFMETSAKTSMNVNEIFMAIAKKLPKN | soluble
